Experimental data taken from the nanobody polyreactivity screen of Harvey et al. (2022).

Assay: yeast display, Sf9 membrane polyspecificity reagent, FACS + sequencing; frameworks hold sequencing errors
Method in brief: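 Nanobodies from a synthetic yeast display library (Saccharomyces cerevisiae BJ5465), induced 36–48 hours with galactose, were stained 1 hour at 4 °C with 10% biotinylated, detergent-solubilized Sf9 membrane reagent, enriched on streptavidin microbeads, then FACS-sorted. Anti-HA (expression) and streptavidin (reagent binding) fluorescence set low and high (top ~1%) gates. Polyreactivity labels come from the gate of origin. Genes were colony-PCR amplified, MiSeq 2 × 250 sequenced and filtered by CDR length.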

## QVQLVESGGGLVQAGGSLRLSCAASGFTFRAYAMGSYRQAPGKERELVAAISTGGGSTYYADSVKGRFTISRDNAKNTVYLQMNSLKPEDTAVYYCNALPQRRYYYWGQGTQVTVSS
  polyreactivity (PSR sort gate): high polyreactivity

## QVQLVESGGGLVQAGGSLRLSCAASGFTFRAYAMGWYRQAPGKERELVAAISSGGGRTYYADSVKGRFTISRDNAKNTVYLQMNSLKPEDTAVYYCAADNYPGTRYDYWGQGTQVTVSS
  polyreactivity (PSR sort gate): high polyreactivity

## QVQLVESGGGLVQAGGSLRLSCAASGFTFRAYAMGWYRQAPGKERELVAGISGSGGRTYYADSVKGRFTISRDNAKNTVYLQMNSLKPEDTAVYYCAAEYRLYGYQYDYWGQGTQVTVSS
  polyreactivity (PSR sort gate): high polyreactivity

## QVQLVESGGGLVQAGGSLRLSCAASGFTFRAYAMGWYRQAPGKERELVATITRSGGSTFYADSVKGRFTISRDNAKNTVYLQMNSLKPEDTAVYYCAAVYRFPCRYAWYKYDDWGQGTQVTVSS
  polyreactivity (PSR sort gate): high polyreactivity

## QVQLVESGGGLVQAGGSLRLSCAASGFTFRAYTMGWYRQAPGKERELVAAITYSGGPTYYADSVKGRFTISRDNAKNTVYLQMNSLKPEDTAVYYCAKRGWALSEYYYWGQGTQVTVSS
  polyreactivity (PSR sort gate): high polyreactivity

## QVQLVESGGGLVQAGGSLRLSCAASGFTFRDYAMGWYRPAPGKERELVAAITRSGGRTYYADSVKGRFTISRDNAKNTVYLQMNSLKPEDTAVYYCAAQLPYYGYDYWGQGTQVTVSS
  polyreactivity (PSR sort gate): low polyreactivity

## QVQLVESGGGLVQAGGSLRLSCAASGFTFRFNAMGWYRQAPGKERELVAAIRQSGGSTYYADSVKGRFTISRDTAKNTVSLQMNSLKPEDTAVYYCATGRSRIRNFGYWGQGTQVTVSS
  polyreactivity (PSR sort gate): high polyreactivity

## QVQLVESGGGLVQAGGSLRLSCAASGFTFRFNAMGWYRQAPGKERELVAAIRYSSGSTYYADSVKGRFTISRDNAKNTVYLEMNSLKPEDTAVYYCAAEQDYNRGYVTGRYYYWGQGTQVTVSS
  polyreactivity (PSR sort gate): high polyreactivity

## QVQLVESGGGLVQAGGSLRLSCAASGFTFRFYAMGWYRQAPGKERELVAAISRSGGDTYYADSVKGRFTISRDNAKNTVYLQMNSLKPEDTAVYYCNKATYRVAGRDFDYWGHGTQVTVSS
  polyreactivity (PSR sort gate): high polyreactivity

## QVQLVESGGGLVQAGGSLRLSCAASGFTFRFYAMGWYRQAPGKERELVAAISRSGGDTYYADSVKGRFTISRDNAKNTVYLQRNRLIPEDTAVYYCNKATYRVAGRDFDYWGQGTQVTVSS
  polyreactivity (PSR sort gate): high polyreactivity

## QVQLVESGGGLVQAGGSLRLSCAASGFTFRFYAMGWYRQAPGKERELVAAISSSSSSTYYADSVKGRFTISRDNAKNTVYLQMNSLKPEDTAVYYCNAGGYTRGDYWGQGTQVTVSS
  polyreactivity (PSR sort gate): high polyreactivity

## QVQLVESGGGLVQAGGSLRLSCAASGFTFRFYAMGWYRQAPGKERELVAAISYNGGSTYYADSVKGRFTISRDNAKNTVYLQMNSLKPEDTAVYYCAAGYYWQYTSSSAQYAYDYWGQGTQVTVSS
  polyreactivity (PSR sort gate): low polyreactivity

## QVQLVESGGGLVQAGGSLRLSCAASGFTFRGNAMGWYRQAPGKERELVATISRGGNTNYADSVKGRFTISRDNAKNTVYLQMNSLKPEDTAVYYCAAVSYIRSKVAYNYWGQGTQVTVSS
  polyreactivity (PSR sort gate): low polyreactivity

## QVQLVESGGGLVQAGGSLRLSCAASGFTFRGNVMGWYRQAPGKERELVAGISSTGSTYYADSVKGRFTISRDNAKNTVYLQMYSVKPVDTAVYYCAAAAIYFRYDYWGQGTQVTVSS
  polyreactivity (PSR sort gate): high polyreactivity

## QVQLVESGGGLVQAGGSLRLSCAASGFTFRGYAMGWYRQAPGKERELVAAISNGGGTNYADSVKGRFTISRDNAKNTVYLQMNSLKPEDTAVYYCNAPGYRAENPGFDYWGQGTQVTVSS
  polyreactivity (PSR sort gate): high polyreactivity

## QVQLVESGGGLVQAGGSLRLSCAASGFTFRGYTIGWYRQAPGKERELVAAITWSGGSTYYADSVKGRFTISRDNAKNTVYLQMNSLKPEDTAVYYCASYAWYGYVYHHLYDYWGQGTQVTVSS
  polyreactivity (PSR sort gate): high polyreactivity

## QVQLVESGGGLVQAGGSLRLSCAASGFTFRIYTMVWYRPAPRKERELVAAISSRGGSTYYADSVKGRFTISRDNAKNTVYLQMNSLKPEDTAVYYCAASGRVYSSGYDYWGQGTQVTVSS
  polyreactivity (PSR sort gate): high polyreactivity
